Data taken from US20220204580A1 (AstraZeneca / MedImmune, published 2022).
Numbered stars: 1 amine (or outer) side, 2 acyl side, 3 side chain; on linkers, the order of the positions; unused ones are H or OH. Bridge positions count the residues as written; N and C are the ends. Square brackets hold non-standard residues; d marks the D form. Side chains are listed from the residue outwards. Ends that are not written are not given here. * marks the point of attachment. C18 diacid = O=C(O)CCCCCCCCCCCCCCCCC(=O)*; γGlu = O=C(O)[C@H](CCC(=O)[*:2])N[*:1]; Aib = CC(C)(N)C(=O)O

T1: human calcitonin receptor (human, UniProt P30988 25-474)
T1 sequence (looked up): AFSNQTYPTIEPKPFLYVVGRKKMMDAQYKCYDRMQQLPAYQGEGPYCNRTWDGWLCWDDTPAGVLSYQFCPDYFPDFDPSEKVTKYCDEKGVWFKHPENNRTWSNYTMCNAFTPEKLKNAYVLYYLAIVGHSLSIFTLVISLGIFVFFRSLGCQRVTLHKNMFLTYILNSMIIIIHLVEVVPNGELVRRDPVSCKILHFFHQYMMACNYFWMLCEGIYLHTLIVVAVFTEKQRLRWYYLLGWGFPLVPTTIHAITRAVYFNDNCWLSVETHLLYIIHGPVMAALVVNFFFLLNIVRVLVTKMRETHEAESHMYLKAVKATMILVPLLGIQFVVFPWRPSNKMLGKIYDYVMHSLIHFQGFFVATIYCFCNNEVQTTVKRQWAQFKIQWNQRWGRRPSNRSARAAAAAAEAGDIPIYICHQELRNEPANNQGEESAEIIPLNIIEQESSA

T2: human amylin receptor (calcitonin receptor co-expressed with receptor activity modifying protein, RAMP3) (human, UniProt P30988 25-474; O60896 24-148)
T2 sequence (looked up) 1: T1 sequence (looked up)
T2 sequence (looked up) 2: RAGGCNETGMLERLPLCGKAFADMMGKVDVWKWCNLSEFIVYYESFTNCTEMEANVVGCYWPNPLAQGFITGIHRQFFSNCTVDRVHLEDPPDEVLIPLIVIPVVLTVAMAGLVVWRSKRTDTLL

B1: Peptide 49 (SEQ ID NO: 49) (peptide)
peptide: K([γGlu-γGlu-C18 diacid])CNTATCATQRLANFLVHSS[Aib]NFGPILPPTEVGSNTY-NH2
modifications: disulfide 2-7; N-terminus assumed
SMILES: CC[C@H](C)[C@H](NC(=O)[C@@H]1CCCN1C(=O)CNC(=O)[C@H](Cc1ccccc1)NC(=O)[C@H](CC(N)=O)NC(=O)C(C)(C)NC(=O)[C@H](CO)NC(=O)[C@H](CO)NC(=O)[C@H](Cc1c[nH]cn1)NC(=O)[C@@H](NC(=O)[C@H](CC(C)C)NC(=O)[C@H](Cc1ccccc1)NC(=O)[C@H](CC(N)=O)NC(=O)[C@H](C)NC(=O)[C@H](CC(C)C)NC(=O)[C@H](CCCNC(=N)N)NC(=O)[C@H](CCC(N)=O)NC(=O)[C@@H](NC(=O)[C@H](C)NC(=O)[C@@H]1CSSC[C@H](NC(=O)[C@@H](N)CCCCNC(=O)CC[C@H](NC(=O)CC[C@H](NC(=O)CCCCCCCCCCCCCCCCC(=O)O)C(=O)O)C(=O)O)C(=O)N[C@@H](CC(N)=O)C(=O)N[C@@H]([C@@H](C)O)C(=O)N[C@@H](C)C(=O)N[C@@H]([C@@H](C)O)C(=O)N1)[C@@H](C)O)C(C)C)C(=O)N[C@@H](CC(C)C)C(=O)N1CCC[C@H]1C(=O)N1CCC[C@H]1C(=O)N[C@H](C(=O)N[C@@H](CCC(=O)O)C(=O)N[C@H](C(=O)NCC(=O)N[C@@H](CO)C(=O)N[C@@H](CC(N)=O)C(=O)N[C@H](C(=O)N[C@@H](Cc1ccc(O)cc1)C(N)=O)[C@@H](C)O)C(C)C)[C@@H](C)O
B2: Peptide 52 (SEQ ID NO: 52) (peptide)
peptide: K([γGlu-C18 diacid])KCNTATCATQRLANFLSHSS[Aib]NFGPILPPTRVGSNTY-NH2
modifications: disulfide 3-8; N-terminus assumed
SMILES: CC[C@H](C)[C@H](NC(=O)[C@@H]1CCCN1C(=O)CNC(=O)[C@H](Cc1ccccc1)NC(=O)[C@H](CC(N)=O)NC(=O)C(C)(C)NC(=O)[C@H](CO)NC(=O)[C@H](CO)NC(=O)[C@H](Cc1c[nH]cn1)NC(=O)[C@H](CO)NC(=O)[C@H](CC(C)C)NC(=O)[C@H](Cc1ccccc1)NC(=O)[C@H](CC(N)=O)NC(=O)[C@H](C)NC(=O)[C@H](CC(C)C)NC(=O)[C@H](CCCNC(=N)N)NC(=O)[C@H](CCC(N)=O)NC(=O)[C@@H](NC(=O)[C@H](C)NC(=O)[C@@H]1CSSC[C@H](NC(=O)[C@H](CCCCN)NC(=O)[C@@H](N)CCCCNC(=O)CC[C@H](NC(=O)CCCCCCCCCCCCCCCCC(=O)O)C(=O)O)C(=O)N[C@@H](CC(N)=O)C(=O)N[C@@H]([C@@H](C)O)C(=O)N[C@@H](C)C(=O)N[C@@H]([C@@H](C)O)C(=O)N1)[C@@H](C)O)C(=O)N[C@@H](CC(C)C)C(=O)N1CCC[C@H]1C(=O)N1CCC[C@H]1C(=O)N[C@H](C(=O)N[C@@H](CCCNC(=N)N)C(=O)N[C@H](C(=O)NCC(=O)N[C@@H](CO)C(=O)N[C@@H](CC(N)=O)C(=O)N[C@H](C(=O)N[C@@H](Cc1ccc(O)cc1)C(N)=O)[C@@H](C)O)C(C)C)[C@@H](C)O
B3: Peptide 51 (SEQ ID NO: 51) (peptide)
peptide: K([γGlu-C18 diacid])KCNTATCATQRLANFLSHSS[Aib]NFGPILPPTHVGSNTY-NH2
modifications: disulfide 3-8; N-terminus assumed
SMILES: CC[C@H](C)[C@H](NC(=O)[C@@H]1CCCN1C(=O)CNC(=O)[C@H](Cc1ccccc1)NC(=O)[C@H](CC(N)=O)NC(=O)C(C)(C)NC(=O)[C@H](CO)NC(=O)[C@H](CO)NC(=O)[C@H](Cc1c[nH]cn1)NC(=O)[C@H](CO)NC(=O)[C@H](CC(C)C)NC(=O)[C@H](Cc1ccccc1)NC(=O)[C@H](CC(N)=O)NC(=O)[C@H](C)NC(=O)[C@H](CC(C)C)NC(=O)[C@H](CCCNC(=N)N)NC(=O)[C@H](CCC(N)=O)NC(=O)[C@@H](NC(=O)[C@H](C)NC(=O)[C@@H]1CSSC[C@H](NC(=O)[C@H](CCCCN)NC(=O)[C@@H](N)CCCCNC(=O)CC[C@H](NC(=O)CCCCCCCCCCCCCCCCC(=O)O)C(=O)O)C(=O)N[C@@H](CC(N)=O)C(=O)N[C@@H]([C@@H](C)O)C(=O)N[C@@H](C)C(=O)N[C@@H]([C@@H](C)O)C(=O)N1)[C@@H](C)O)C(=O)N[C@@H](CC(C)C)C(=O)N1CCC[C@H]1C(=O)N1CCC[C@H]1C(=O)N[C@H](C(=O)N[C@@H](Cc1c[nH]cn1)C(=O)N[C@H](C(=O)NCC(=O)N[C@@H](CO)C(=O)N[C@@H](CC(N)=O)C(=O)N[C@H](C(=O)N[C@@H](Cc1ccc(O)cc1)C(N)=O)[C@@H](C)O)C(C)C)[C@@H](C)O
B4: Peptide 47 (SEQ ID NO: 47) (peptide)
peptide: K([γGlu-C18 diacid])KCNTATCATQRLAHFLVHSS[Aib]NFGPILPPTNVGSETY-NH2
modifications: disulfide 3-8; N-terminus assumed
SMILES: CC[C@H](C)[C@H](NC(=O)[C@@H]1CCCN1C(=O)CNC(=O)[C@H](Cc1ccccc1)NC(=O)[C@H](CC(N)=O)NC(=O)C(C)(C)NC(=O)[C@H](CO)NC(=O)[C@H](CO)NC(=O)[C@H](Cc1c[nH]cn1)NC(=O)[C@@H](NC(=O)[C@H](CC(C)C)NC(=O)[C@H](Cc1ccccc1)NC(=O)[C@H](Cc1c[nH]cn1)NC(=O)[C@H](C)NC(=O)[C@H](CC(C)C)NC(=O)[C@H](CCCNC(=N)N)NC(=O)[C@H](CCC(N)=O)NC(=O)[C@@H](NC(=O)[C@H](C)NC(=O)[C@@H]1CSSC[C@H](NC(=O)[C@H](CCCCN)NC(=O)[C@@H](N)CCCCNC(=O)CC[C@H](NC(=O)CCCCCCCCCCCCCCCCC(=O)O)C(=O)O)C(=O)N[C@@H](CC(N)=O)C(=O)N[C@@H]([C@@H](C)O)C(=O)N[C@@H](C)C(=O)N[C@@H]([C@@H](C)O)C(=O)N1)[C@@H](C)O)C(C)C)C(=O)N[C@@H](CC(C)C)C(=O)N1CCC[C@H]1C(=O)N1CCC[C@H]1C(=O)N[C@H](C(=O)N[C@@H](CC(N)=O)C(=O)N[C@H](C(=O)NCC(=O)N[C@@H](CO)C(=O)N[C@@H](CCC(=O)O)C(=O)N[C@H](C(=O)N[C@@H](Cc1ccc(O)cc1)C(N)=O)[C@@H](C)O)C(C)C)[C@@H](C)O
B5: Peptide 46 (SEQ ID NO: 46) (peptide)
peptide: K([γGlu-C18 diacid])KCNTATCATQRLAHFLVHSS[Aib]NFGPILPPTNVGSNTY-NH2
modifications: disulfide 3-8; N-terminus assumed
SMILES: CC[C@H](C)[C@H](NC(=O)[C@@H]1CCCN1C(=O)CNC(=O)[C@H](Cc1ccccc1)NC(=O)[C@H](CC(N)=O)NC(=O)C(C)(C)NC(=O)[C@H](CO)NC(=O)[C@H](CO)NC(=O)[C@H](Cc1c[nH]cn1)NC(=O)[C@@H](NC(=O)[C@H](CC(C)C)NC(=O)[C@H](Cc1ccccc1)NC(=O)[C@H](Cc1c[nH]cn1)NC(=O)[C@H](C)NC(=O)[C@H](CC(C)C)NC(=O)[C@H](CCCNC(=N)N)NC(=O)[C@H](CCC(N)=O)NC(=O)[C@@H](NC(=O)[C@H](C)NC(=O)[C@@H]1CSSC[C@H](NC(=O)[C@H](CCCCN)NC(=O)[C@@H](N)CCCCNC(=O)CC[C@H](NC(=O)CCCCCCCCCCCCCCCCC(=O)O)C(=O)O)C(=O)N[C@@H](CC(N)=O)C(=O)N[C@@H]([C@@H](C)O)C(=O)N[C@@H](C)C(=O)N[C@@H]([C@@H](C)O)C(=O)N1)[C@@H](C)O)C(C)C)C(=O)N[C@@H](CC(C)C)C(=O)N1CCC[C@H]1C(=O)N1CCC[C@H]1C(=O)N[C@H](C(=O)N[C@@H](CC(N)=O)C(=O)N[C@H](C(=O)NCC(=O)N[C@@H](CO)C(=O)N[C@@H](CC(N)=O)C(=O)N[C@H](C(=O)N[C@@H](Cc1ccc(O)cc1)C(N)=O)[C@@H](C)O)C(C)C)[C@@H](C)O
B6: Peptide 50 (SEQ ID NO: 50) (peptide)
peptide: K([γGlu-γGlu-C18 diacid])CNTATCATQRLANFLRHSS[Aib]NFGPILPPTEVGSNTY-NH2
modifications: disulfide 2-7; N-terminus assumed
SMILES: CC[C@H](C)[C@H](NC(=O)[C@@H]1CCCN1C(=O)CNC(=O)[C@H](Cc1ccccc1)NC(=O)[C@H](CC(N)=O)NC(=O)C(C)(C)NC(=O)[C@H](CO)NC(=O)[C@H](CO)NC(=O)[C@H](Cc1c[nH]cn1)NC(=O)[C@H](CCCNC(=N)N)NC(=O)[C@H](CC(C)C)NC(=O)[C@H](Cc1ccccc1)NC(=O)[C@H](CC(N)=O)NC(=O)[C@H](C)NC(=O)[C@H](CC(C)C)NC(=O)[C@H](CCCNC(=N)N)NC(=O)[C@H](CCC(N)=O)NC(=O)[C@@H](NC(=O)[C@H](C)NC(=O)[C@@H]1CSSC[C@H](NC(=O)[C@@H](N)CCCCNC(=O)CC[C@H](NC(=O)CC[C@H](NC(=O)CCCCCCCCCCCCCCCCC(=O)O)C(=O)O)C(=O)O)C(=O)N[C@@H](CC(N)=O)C(=O)N[C@@H]([C@@H](C)O)C(=O)N[C@@H](C)C(=O)N[C@@H]([C@@H](C)O)C(=O)N1)[C@@H](C)O)C(=O)N[C@@H](CC(C)C)C(=O)N1CCC[C@H]1C(=O)N1CCC[C@H]1C(=O)N[C@H](C(=O)N[C@@H](CCC(=O)O)C(=O)N[C@H](C(=O)NCC(=O)N[C@@H](CO)C(=O)N[C@@H](CC(N)=O)C(=O)N[C@H](C(=O)N[C@@H](Cc1ccc(O)cc1)C(N)=O)[C@@H](C)O)C(C)C)[C@@H](C)O

What follows are binders tested against T1, human calcitonin receptor (assay: cell-based or functional assay).

Binder	EC50 (cAMP production) [nM]
B1	4.14
B2	1.1
B3	1.65
B4	0.468
B5	0.362
B6	18.9

These binders were tested against T2, human amylin receptor (calcitonin …) (assay: cell-based or functional assay).

Binder	EC50 (cAMP production) [nM]	Ratio (EC50 hCTR / EC50 hAMYR3)
B1	0.334	12
B2	0.089	12
B3	0.126	13
B4	0.218	2
B5	0.109	3
B6	0.349	54
